Patent publication US20230047413A1 (Janssen / Centocor, published 2023)

Columns and labels:
[1] = target: T1, tau phospho-peptide of the direct ELISA of Example 11; assay: direct ELISA, peptide coated
T1 construct: also called pT217 peptide; pT212/pT217 peptide
Outline: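 Tau phospho-peptide coated directly on plates at 10 ng/mL overnight, then incubated with antibodies. Bound Fab detected with HRPO-labelled anti-Fab antibody (1:10000) and TMB substrate. Binding curves generated from the read-out.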

[2] = target: T2, Peptide-2 (human, phosphothreonine 212, phosphothreonine 217 (tau 2N4R numbering); short chain biotin (SCBiot) and dPEG4 at the N-terminus; amide at the C-terminus); assay: SPR ProteOn, peptide captured, Fab as analyte; range of n=2; upper end of n=2 range
T2 construct: also called pT212/pT217-tau peptide (Peptide-2)
Procedure: (§1) The binding affinity of PT3 Fab towards each of the fourteen tau phosphopeptides shown in Table 6 was assessed by surface plasmon resonance (SPR) using a Bio-Rad ProteOn XPR36. Peptides were synthesized by standard chemical methods (New England Peptide) with short-chain biotin and a PEG4 moiety at the N-terminus. Biotinylated peptide was captured on a neutravidin-coated NLC biosensor chip and PT3 Fab was flowed over the surface to measure kinetic parameters.
(§2) All experiments were performed at 25° C. using phosphate buffered saline, pH 7.4, 0.005% Tween 20 (PBST) as both running buffer and sample dilution buffer. Prior to running samples, the NLC chip was conditioned by running PBST over the chip surface for 1 h. Approximately 5-10 RU of peptide was captured on the chip surface by diluting peptide to 10 ng/mL in PBST and injecting over the flow channels at 30 μL/min for 100 s. Serial dilutions of PT3 Fab (1.1-90 nM) were analyzed and, with the exception of Peptide-8, each concentration was measured in duplicate. After capture of peptides, the antibody titration was injected at 60 μL/min for 3 minutes (association phase), followed by 300 s of buffer only (dissociation phase).
(§3) The data were double referenced by subtraction of the interspot response and the curves generated by the buffer-only injection. The chip surface was regenerated using a single injection of 0.85% phosphoric acid at 30 μL/min for 100 s contact time, followed by four injections of running buffer before the next antibody titration injection. The data processing and kinetic analysis were done using the instrument software. The data were analyzed using a simple Langmuir 1:1 binding model.

[3] = target: Peptide-4 (human, phosphoserine 210, phosphothreonine 217 (tau 2N4R numbering); SCBiot and dPEG4 at the N-terminus; amide at the C-terminus); assay: as above
Procedure: as §1, §2, §3

[4] = target: Peptide-5 (human, phosphoserine 210, phosphoserine 214, phosphothreonine 217 (tau 2N4R numbering); SCBiot and dPEG4 at the N-terminus; amide at the C-terminus); assay: as above
Procedure: as §1, §2, §3

[5] = target: T3, Peptide-6 (human, phosphothreonine 217 (tau 2N4R numbering); SCBiot and dPEG4 at the N-terminus; amide at the C-terminus); assay: as above
Procedure: as §1, §2, §3

[6] = target: Peptide-7 (human, phosphothreonine 212, phosphoserine 214 (tau 2N4R numbering); SCBiot and dPEG4 at the N-terminus; amide at the C-terminus); assay: as above
Procedure: as §1, §2, §3

[7] = target: T3, Peptide-6; assay: SPR ProteOn, peptide captured, Fab as analyte; range of n=2; Peptide-6 (pT217 only); lower end of n=2 range
Procedure: as §1, §2
(§4) The data were double referenced by subtraction of the interspot response and the curves generated by the buffer-only injection. […] The data were analyzed using a simple Langmuir 1:1 binding model.

[8] = target: T3, Peptide-6; assay: SPR ProteOn, peptide captured, Fab as analyte; range of n=2; Peptide-6 (pT217 only); upper end of n=2 range
Procedure: as §1, §2, §4

T3 sequence (peptide, as listed by the source): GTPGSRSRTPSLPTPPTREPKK

B1: PT3 Fab (B187) (Fab, V domains shown)
VH: EVKLVESGGDLVKPGGSLKLSCAASGFTFSSYAMSWVRQNPEKRLEWVASISKGGNTYYPNSVKGRFTISRDNARNILYLQMSSLRSEDTALYYCARGWGDYGWFAYWGQVTLVTVSA
VL: DIKMTQSPSSMYASLGERVTITCKASQDINRYLNWFQQKPGKSPKTLIYRANRLLDGVPSRFSGSGSGQDYSLTISSLDYEDMGIYYCLQYDEFPLTFGDGTKLELK
notes: Chimeric Fab: mouse variable regions, human IgG1/kappa constant region, 6xHis tag at the C-terminus of the heavy chain; also called mouse parental Fab of PT3
With B1 the EC50 [1] was 0.11 nM, the koff [2] was 0.000245 s⁻¹ and the kon [2] was 982000 M⁻¹ s⁻¹. It also gave a koff [3] of 0.00627 s⁻¹, a kon [3] of 968000 M⁻¹ s⁻¹ and a koff [4] of 0.00598 s⁻¹. For the same binder, the kon [4] was 863000 M⁻¹ s⁻¹, the koff [5] was 0.00625 s⁻¹ and the kon [5] was 558000 M⁻¹ s⁻¹. It also gave a koff [6] of 0.0056 s⁻¹, a kon [6] of 487000 M⁻¹ s⁻¹ and a Kd [7] of 10.9 to 11.9 nM. For the same binder, the Kd [8] was 10.9 to 11.9 nM.
